Results from patent US20250236644A1 (University of Washington, published 2025).
Blank lines part the entries; values can stand above or below the binder they belong to.

What was measured:
[1] = target: T1, effector peptide cs201B; experiment: FRET kinetics; slope of kapp against peptide concentration
T1 construct: Unlabeled
T1 peptide: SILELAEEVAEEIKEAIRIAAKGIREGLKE
Method: (§1) FIG. 14. Columns 1-3: FRET kinetics using extended hinges labeled with AlexaFluor™ 555 and AlexaFluor™ 647 at a constant concentration (2 nM for cs201F and cs074F, 5 nM for cs221F) and corresponding peptides at varying concentrations. Column 4: FP kinetics using TAMRA-labeled peptide cs074B at 2 nM and extended hinge cs074F at varying concentrations. All kinetic traces (rows 1-8) were fitted using a single-exponential equation (black lines). […] The slope of the linear fit gives the observed on rate kₒₙ.
(§2) For FRET kinetics experiments a 2× hinge solution and 8 different 2× effector solutions at different concentrations were prepared separately. 40 μl of each effector solution were mixed with 40 μl hinge solution using a multichannel pipet and the measurement was started immediately after mixing. Fluorescence signals S at each concentration were fitted individually to the equation

[2] = target: T1, effector peptide cs201B; experiment: FRET titration; 2 nM labeled hinge, effector varied
Method: (§3) Dotted lines in spectra indicate acceptor and donor emission peaks. B) Kinetic model describing the coupling of the conformational equilibrium to the binding equilibrium. X and Y: hinge in state X and Y, respectively; P: peptide; YP: peptide bound to hinge in state Y. k₁, k₋₁, k₋₂, and […] the microscopic rate constants. C) FP characterization of unlabeled extended hinge cs074F. From left to right: binding titration at 0.1 nM TAMRA-labeled peptide and varying hinge concentrations; time course after mixing 2 nM TAMRA-labeled peptide and 100 nM hinge fitted with a single-exponential equation (black line); apparent rate constants obtained from single-exponential kinetic fits plotted against absolute hinge concentrations (circles) and fitted with a linear equation (black line). D) FRET-based reversibility experiment using the labeled extended hinge […] introduced in C). Hinge concentration is 30 nM for all traces; 1 μM peptide is added at t=0, 3 μM unlabeled competitor hinge is added after 1 h. E) Top from left to right: schematic representation of the inpainting procedure that adds two helices to the peptide cs074B yielding a three-helix bundle (3hb); cylindrical representation of 3hb_05 bound to hinge cs074; overlay of design model and crystal structure of 3hb_05. Bottom from left to right: SEC traces for hinge cs074, 3hb_05, and a mixture of both; FRET-based titration of 2 nM extended labeled hinge cs074F and varying concentrations of 3hb_05 fitted with a standard binding isotherm (back line); Distance distributions obtained from DEER experiments as described in FIG. 2 (cs074, cs074+peptide cs074B, cs074+3hb_05).
(§4) Titrations were carried out in 96-well format, with 4 replicates per plate and 24 data points per titration (23 steps of two-fold serial dilution of effector (peptide or 3hb) in the presence of double-labeled hinge at a constant concentration of 2 nM) with a final sample volume of 80 μl per well. Titration plates were incubated overnight at room temperature before measuring to ensure complete equilibration. The raw fluorescence signal (donor emission upon acceptor excitation) was fitted to the equation

[3] = target: T2, effector peptide cs221B; experiment: FRET titration, 2 nM labeled hinge
T2 construct: Unlabeled
T2 peptide: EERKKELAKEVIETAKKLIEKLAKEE
Method: as §3, §4

[4] = target: T3, effector peptide cs074B; experiment: FRET titration, 2 nM labeled hinge
T3 construct: Chemically synthesized, unlabeled
T3 peptide: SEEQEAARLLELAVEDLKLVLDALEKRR
Method: as §3, §4

[5] = target: T2, effector peptide cs221B; experiment: FRET titration; 2 nM labeled hinge, off-target peptide varied
Method: (§5) The buffer for all FRET measurements was 20 mM Tris-HCl, 100 mM NaCl, 0.05% v/v TWEEN®20 at pH 8. Fluorescence spectra were recorded at room temperature using a FluoroMax™ spectrometer in a 1 cm×1 cm cuvette at a sample volume of 3 ml. FRET titrations and kinetics measurements were performed at 25° C. in 96-well plates (Corning 3686) using a Synergy Neo2™ plate reader. Excitation wavelength was 520 nm and emission wavelength was 665 nm (except for donor-donor controls for which emission wavelength was 555 nm, see FIG. 13B right column).
as §4

[6] = target: T1, effector peptide cs201B; experiment: as above
Method: as §5, §4

[7] = target: T3, effector peptide cs074B; experiment: FRET kinetics; slope of kapp against peptide concentration
Method: as §1, §2

[8] = target: T4, effector protein 3hb03; experiment: FRET titration; 2 nM labeled hinge, effector varied
T4 construct: Three-helix bundle built around peptide cs074B
T4 chain: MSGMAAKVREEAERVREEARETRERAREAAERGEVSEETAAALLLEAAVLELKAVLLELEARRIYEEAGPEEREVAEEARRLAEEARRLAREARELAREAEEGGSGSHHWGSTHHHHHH
Method: as §3, §4

[9] = target: T3, effector peptide cs074B; experiment: as above
Method: as §3, §4

[10] = target: T5, effector protein 3hb08; experiment: as above
T5 construct: Three-helix bundle built around peptide cs074B
T5 chain: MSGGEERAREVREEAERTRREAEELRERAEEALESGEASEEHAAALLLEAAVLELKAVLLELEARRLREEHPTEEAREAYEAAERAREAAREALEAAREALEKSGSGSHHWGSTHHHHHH
Method: as §3, §4

[11] = target: T6, effector protein 3hb05; experiment: as above
T6 construct: Three-helix bundle built around peptide cs074B
T6 chain: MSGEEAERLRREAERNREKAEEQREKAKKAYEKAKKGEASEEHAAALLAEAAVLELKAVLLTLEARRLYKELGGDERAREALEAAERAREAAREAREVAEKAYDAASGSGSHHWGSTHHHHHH
Method: as §3, §4

[12] = target: T7, effector protein 3hb04; experiment: as above
T7 construct: Three-helix bundle built around peptide cs074B
T7 chain: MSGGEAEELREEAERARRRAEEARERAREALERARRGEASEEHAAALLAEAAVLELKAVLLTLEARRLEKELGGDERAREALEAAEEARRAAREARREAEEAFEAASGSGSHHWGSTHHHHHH
Method: as §3, §4

[13] = target: T8, effector protein 3hb11; experiment: as above
T8 construct: Three-helix bundle built around peptide cs074B
T8 chain: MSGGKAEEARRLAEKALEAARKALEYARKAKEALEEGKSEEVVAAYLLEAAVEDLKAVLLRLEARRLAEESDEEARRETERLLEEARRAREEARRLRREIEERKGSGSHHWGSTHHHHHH
Method: as §3, §4

[14] = target: T9, effector protein 3hb12; experiment: as above
T9 construct: Three-helix bundle built around peptide cs074B
T9 chain: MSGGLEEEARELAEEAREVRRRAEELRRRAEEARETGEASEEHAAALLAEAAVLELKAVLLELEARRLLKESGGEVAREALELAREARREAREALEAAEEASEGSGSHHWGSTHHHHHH
Method: as §3, §4

[15] = target: T10, effector protein 3hb21; experiment: FRET titration; 2 nM hinge cs221F, 3hb varied
T10 construct: Three-helix bundle built around peptide cs221B
T10 chain: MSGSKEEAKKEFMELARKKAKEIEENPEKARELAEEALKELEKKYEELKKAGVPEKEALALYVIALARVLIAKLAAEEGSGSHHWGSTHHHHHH
Method: (§6) FIG. 18. FRET-based quantitative analysis of the interaction between cs221F and 3hb21. Individual kinetic traces were obtained using a constant hinge concentration of 5 nM and varying 3hb concentrations as indicated by plot labels. Single exponential fits give apparent rate constants that increase linearly with the total 3hb concentration (points in pseudo-first order plot). The linear fit of kₐₚₚ against 3hb concentration gives an observed on rate that is 5 times faster than the observed on rate of the original peptide.
as §4

[16] = target: T10, effector protein 3hb21; experiment: FRET kinetics; 5 nM hinge, 3hb varied
Method: as §6, §2

[17] = target: T10, effector protein 3hb21; experiment: FRET kinetics; 5 nM labeled hinge, slope of kapp against 3hb concentration
[18] = target: T2, effector peptide cs221B; experiment: FRET kinetics; slope of kapp against peptide concentration
Method: as §1, §2

[19] = target: T2, effector peptide cs221B; experiment: FRET titration; 2 nM labeled hinge, effector varied
Method: as §3, §4

[20] = target: T10, effector protein 3hb21; experiment: as above
Method: as §3, §4

[21] = target: T1, effector peptide cs201B; experiment: FRET titration, 2 nM labeled hinge
Method: as §3, §4

kon [1]: 4500 M⁻¹ s⁻¹
Kd [2]: 20 nM
binding result [3]: no binding (tested: µM concentrations)
binding result [4]: no binding (tested: µM concentrations)
B1: FRET(extension) cs201F, labeled with AlexaFluor 555 and AlexaFluor 647 (designed binder)
chain: MSGDEEVQEAVERAEELREEAEELIKKARKTGDPELLRKALEALEEAVRAVEEAICRNPDNDEAVETAVRLARELKKVAEELQERAKKTGDPELLKLALRALEVAVRAVELAIKSNPDNDEAVETAVRLARELKKVAEELQERAKKTGDPELLKLALRALEVAVRAVELAIKRNPDNEEAIKTALRLARELRKVAKELIERARKTGDAELLKKALEAARVAVEAVRLAAEYNKENAEKMAELLVELAELAREVADVLIELAEKTGDPELLKKALEVLEEAVEAVRLAIEYDPDHDEAVETAVRLARELKKVAEELQERAKKTGDPELLKLALRALEVAVRAVELAIKSNPDNEEAVETAKRLAEELRKVAELLEERAKETGDPCLQELAKRAKEVADRARELAKKSNPNNGSGSHHWGSTHHHHHH
modifications: the two introduced cysteines stochastically labeled with an equal mixture of AlexaFluor 555 C2 maleimide (donor) and AlexaFluor 647 C2 maleimide (acceptor)
notes: also called FRET-labeled hinge cs201F

Kd [5]: 130 nM
Kd [6]: 2500 nM
kon [7]: 170000 M⁻¹ s⁻¹
Kd [8]: < 2 nM
Kd [9]: < 2 nM
Kd [10]: < 2 nM
Kd [11]: < 2 nM
Kd [12]: < 2 nM
Kd [13]: < 2 nM
Kd [14]: < 2 nM
B2: FRET(extension) cs074F, labeled with AlexaFluor 555 and AlexaFluor 647 (designed binder)
chain: DEEVQEAVERAEELREEAEELIKKARKTGDPELLRKALEALECAVRAVEEAIKRNPDNDEAVETAVRLARELKKVAEELQERAKKTGDPELLKLALRALKVAVRAVKLAIKSNPDNEEAVKTAVRLARELLKVAEELKERAEKTGDPRLLLLAAEAIAWAIEAVFLAAKASENTEGALEAARAAVKLAEVAKRIAKLLQRDAKKEGDPELLKLALRALELAVRAVELAIKENPDNDEAVETAVRLARELKKVAEELQERAKKTGDPELLKLALRALEVAVRAVELAIKSNPDNEEAVETAKRLAEELRKVAELLEERACETGDPELQELAKRAKEVADRARELAKKSNPNNGSHHHHHH
modifications: the two introduced cysteines stochastically labeled with an equal mixture of AlexaFluor 555 C2 maleimide (donor) and AlexaFluor 647 C2 maleimide (acceptor)
notes: Extended hinge cs074 used in the FRET assays; also called extended labeled hinge cs074F

Kd [15]: < 2 nM
fold stronger KD than the original peptide cs221B [15]: 20 fold
fold faster observed on rate than the original peptide cs221B [16]: 5 fold
kon [17]: 13000 M⁻¹ s⁻¹
kon [18]: 2600 M⁻¹ s⁻¹
Kd [19]: 21 nM
Kd [20]: 2.2 nM
binding result [21]: no binding (tested: µM concentrations)
binding result [4]: no binding (tested: µM concentrations)
B3: FRET(extension) cs221F, labeled with AlexaFluor 555 and AlexaFluor 647 (designed binder)
chain: MSGEMVEEIEKLAEELAKKTKDCEVKKLAKKAAELAKKSTDEMKKEIVKDALELALRTKDEEVIRLALKAAVLAAESDDEEVKEVVKKALEAALKSKDEEVIRLLLLAAVLAAAAARSGSPEEKLEIAKKALELAMKSKDEEVIRLALLAAVLAARSDDEEVLKIVKKALELAMESKDVEVIRLALEAAVLAARSTDPEKKKCVYEALEKAMESKDEEEIKKELKAAVEKARSTEGSGSHHWGSTHHHHHH
modifications: the two introduced cysteines stochastically labeled with an equal mixture of AlexaFluor 555 C2 maleimide (donor) and AlexaFluor 647 C2 maleimide (acceptor)
